Numbering of substitutions follows the chain as printed.
T1: Recombinant human MerTK-human Fc Chimera protein (human, UniProt Q12866 26-499, limits assumed)
T1 construct: bought construct; also called MerTK-Fc (R&D systems, Cat #391-MR-100)
T1 sequence: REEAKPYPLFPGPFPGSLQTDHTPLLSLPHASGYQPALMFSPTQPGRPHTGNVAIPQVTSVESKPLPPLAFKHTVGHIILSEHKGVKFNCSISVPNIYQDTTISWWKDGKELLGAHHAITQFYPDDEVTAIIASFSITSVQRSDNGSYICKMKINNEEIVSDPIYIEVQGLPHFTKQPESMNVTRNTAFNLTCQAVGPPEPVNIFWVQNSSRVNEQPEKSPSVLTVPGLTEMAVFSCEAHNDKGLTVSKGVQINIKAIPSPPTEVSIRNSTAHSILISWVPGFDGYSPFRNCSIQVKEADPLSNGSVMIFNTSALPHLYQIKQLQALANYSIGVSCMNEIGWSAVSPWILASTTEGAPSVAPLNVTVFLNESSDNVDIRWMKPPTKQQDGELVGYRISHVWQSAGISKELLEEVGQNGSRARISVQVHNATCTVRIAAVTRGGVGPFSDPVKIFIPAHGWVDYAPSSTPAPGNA

T2: human MerTK (human, UniProt Q12866 21-999)
T2 sequence: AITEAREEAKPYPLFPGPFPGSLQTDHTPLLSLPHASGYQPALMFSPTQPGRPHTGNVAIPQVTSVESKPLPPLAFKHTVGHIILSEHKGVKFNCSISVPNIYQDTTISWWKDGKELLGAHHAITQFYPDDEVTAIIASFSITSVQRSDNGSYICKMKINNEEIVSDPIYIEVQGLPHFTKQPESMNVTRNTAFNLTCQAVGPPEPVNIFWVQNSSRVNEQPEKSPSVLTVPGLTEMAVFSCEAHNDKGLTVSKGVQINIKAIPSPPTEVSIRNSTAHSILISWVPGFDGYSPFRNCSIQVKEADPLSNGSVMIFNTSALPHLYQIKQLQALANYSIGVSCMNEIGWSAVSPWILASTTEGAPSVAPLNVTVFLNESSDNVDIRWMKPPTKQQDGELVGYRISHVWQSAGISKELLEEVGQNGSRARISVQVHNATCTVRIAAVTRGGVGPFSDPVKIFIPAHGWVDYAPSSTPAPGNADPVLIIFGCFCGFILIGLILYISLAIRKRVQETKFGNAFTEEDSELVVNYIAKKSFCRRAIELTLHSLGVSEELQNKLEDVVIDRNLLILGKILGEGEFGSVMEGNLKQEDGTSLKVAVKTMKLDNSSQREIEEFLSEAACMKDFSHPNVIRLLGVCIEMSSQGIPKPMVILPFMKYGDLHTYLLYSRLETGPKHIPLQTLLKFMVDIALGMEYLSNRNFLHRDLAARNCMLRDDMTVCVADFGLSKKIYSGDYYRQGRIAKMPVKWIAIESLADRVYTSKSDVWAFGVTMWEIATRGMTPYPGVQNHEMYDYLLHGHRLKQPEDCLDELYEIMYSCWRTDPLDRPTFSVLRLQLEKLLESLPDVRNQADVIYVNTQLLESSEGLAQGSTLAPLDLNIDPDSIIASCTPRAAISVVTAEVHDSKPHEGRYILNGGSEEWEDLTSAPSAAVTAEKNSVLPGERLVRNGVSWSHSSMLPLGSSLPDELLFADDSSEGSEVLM

T3: Full Axl (ECD domain of human Axl) (human, UniProt P30530 26-451)
T3 construct: also called human Axl ECD
T3 sequence: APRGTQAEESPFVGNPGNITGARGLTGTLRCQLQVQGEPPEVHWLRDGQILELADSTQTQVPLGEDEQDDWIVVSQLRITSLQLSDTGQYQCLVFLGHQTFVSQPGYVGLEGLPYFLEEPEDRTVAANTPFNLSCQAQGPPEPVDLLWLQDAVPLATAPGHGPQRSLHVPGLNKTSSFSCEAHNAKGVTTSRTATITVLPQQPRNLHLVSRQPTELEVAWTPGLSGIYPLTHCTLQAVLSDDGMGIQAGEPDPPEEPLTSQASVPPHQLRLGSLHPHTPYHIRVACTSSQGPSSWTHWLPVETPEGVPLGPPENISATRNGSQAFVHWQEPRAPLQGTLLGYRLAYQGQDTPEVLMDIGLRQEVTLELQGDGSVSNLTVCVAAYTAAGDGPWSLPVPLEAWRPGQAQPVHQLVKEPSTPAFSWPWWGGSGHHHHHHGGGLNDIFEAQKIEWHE

B1: MTK-228 (antibody, human IgG1, V domains shown)
VH: QDQLQQSGPELVKPGASVKISCKASGYSFTSYYIHWVKQRPGQGLEWVGWIFPGNGNTKYNERFKGKATLTADTSSSTAYMQLSSLTSEDSAVYYCARLGLIYALDYWGQGTSVTVSS
VL: DAVMTQTPLSLPVSLGDQASISCRSSQSLENSNGNTYLHWYLQKPGQSPQLLIYRVSNRFSGVLDRFSGSGSGTDFTLKISRVEAEDLGVYFCLQVTHVPFTFGSGTKLEIK
B2: MTK-218 (antibody, human IgG1, V domains shown)
VH: B1 VH with D2V, A16T, E46D, V48I, G56R, K59Q, R63K
VL: B1 VL with N35H, L64Q
B3: MTK-226 (antibody, human IgG1, V domains shown)
VH: B1 VH with D2V, V48I, R63N, K65R
VL: B1 VL with N31S, K79Q
B4: MTK-227 (antibody, human IgG1, V domains shown)
VH: EVKLVESGGGLVQPGGSLSLSCAASGFTFTDNYMTWVRQPPGKALEWLGFSRNKANGYTTEYSASVKGRFTISRDSSQSILYLQMNALRAEDSGTYYCARFPPHYYAGGYFDVWGTGTTVTVSS
VL: DIQMTQSPASLSASVGETVTITCRASENIYSYLAWYQQKQGKSPQLLVYNAKTLAEGVPSRFSGSGSGTQFSLKINSLQPADFGSYYCQHYYRTPPTFGGGTKLEIK
B5: MTK-229 (antibody, human IgG1, V domains shown)
VH: QVQLQQSGPELVKPGASVKISCKASGYEFSRSWMNWVKQRPGKGLEWIGRIYPGDGDTNYKGKLKGQATLTADKSSSTAYMQLSSLTFEDSAVYFCARGGGYYYDSRYEGFVYWGQGTVVTVSA
VL: QIVLTQSPAIMSASPGEEVTMTCSASSSVSYMHWYQQKSGTSPKRWIYDTSKLASGVSGRFSGSGSGTSYSLTISSMEAEDAATYYCQQWSSNPPITFGAGTKLELK
B6: MTK-223 (antibody, human IgG1, V domains shown)
VH: DVQLQESGPGLVKPSQSLSLTCSVTGYSITSGYYWNWIRQFPGNKLEWMGYISYDGTNNYNPSLKNRISITRDTSENQFFLKLNSVTTEDTATYFCVRGAGYWGQGTTLTVSS
VL: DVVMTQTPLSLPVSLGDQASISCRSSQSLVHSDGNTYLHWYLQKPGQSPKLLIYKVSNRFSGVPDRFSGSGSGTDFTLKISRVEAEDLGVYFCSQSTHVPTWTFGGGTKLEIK
B7: MTK-207 (antibody, human IgG1, V domains shown)
VH: QVQLKESGPGLVAPSQSLSITCTVSGISLTSYGVSWVRQPPGKGLEWLGIIWGDGSTNYHSALISRLSISKDNSKSQVFLKLNSLQTDDTATYYCAKGRYGNYEDWYFDVWGTGTTVTVSS
VL: DIQMTQSPASLSASVGETVTITCRASGNIHNYLAWYQQKQGKSPQLLVYNAKTLAAGVPSRFSGSGSGTQYSLKINSLQPEDFGSYYCQHFWSIPLTFGAGTKLELK

Legend:
[1] = molecular target: T1, Recombinant human MerTK-human Fc …; assay: blocking ELISA, Gas6-His on MerTK-Fc, Ab 66.6 nM, isotype=100%
Experimental: Briefly, rabbit anti-human IgG antibody (Jackson ImmunoResearch, Cat #309-005-008) was coated at 2 μg/ml onto high-protein binding plates at 4° C. overnight. After washing with 0.05% Tween20 in PBS three times, 5% BSA in PBS was added for 1 hour. Recombinant human MerTK-human Fe Chimera protein (R&D systems, Cat #391-MR-100) was added at 2 μg/ml for 1 hour and plates were washed before the addition of 40 μl of anti-MerTK hybridoma supernatants and 40 μl of His tag-conjugated recombinant Gas6 (R&D systems, Cat #885-GSB-050) at 3 μg/ml or His tag-conjugated recombinant ProS (R&D systems, Cat #9489-PS-100) at 20 μg/ml. After a further incubation for 1 hour, plates were washed and incubated for 1 hour with HRP-conjugated anti-6×His tagged antibody (Abcam, Cambridge, MA, Cat #ab1187). Plates were then washed and an HRP substrate, TMB, was added to develop the plates. The reaction was stopped by adding 50 μl 2N H₂SO₄ and the OD was measured using a spectrophotometer (BioTek).
Anti-MerTK antibodies were titrated to a final concentration from 66.6 nM to 4 pM and tested against anti-human MerTK antibody M6 (disclosed in WO2016/106221) or isotype control antibody.

[2] = molecular target: T2, human MerTK; assay: cell-based or functional assay
[3] = molecular target: T3, Full Axl (ECD domain of human Axl); assay: SPR (data not shown)
Experimental: Binding of anti-MerTK antibodies of the present disclosure to these domain-swapped chimera or deletion mutants was tested by Surface Plasmon Resonance (SPR) using Carterra LSA. Purified anti-MerTK antibodies were immobilized in duplicate on a HC30M chip (Carterra) by amine coupling, following the manufacturer's instructions (described previously).
Supernatants containing the constructs were diluted 1:1 with running buffer containing 0.5 mg/mL BSA (HBS-TE, Carterra; BSA, Sigma) and injected over the immobilized antibodies. The surface was regenerated with 10 mM Glycine pH2.0 after each construct injection. Sensorgrams were analyzed using Carterra Epitope software to identify patterns of construct binding. Loss of binding to MerTK constructs with domains deleted or swapped in from Axl and/or gain of binding to Axl constructs with MerTK domains swapped in were evaluated. Data from these studies were used to construct a domain binding map for anti-MerTK antibodies and their binding to various domains of human MerTK.

Binder | Percent Gas6 ligand binding [1] | EC50 (nM), pAKT in SK-MEL-5 cells [2] | Fold increase in PAKT over IgG control [2] | binding result [3]
B1 | 110% | 0.53 nM | 4.2 fold | no binding
B2 | 112% | – | 4.5 fold | no binding
B3 | 109% | 0.53 nM | 4.2 fold | no binding
B4 | 99.9% | 1.89 nM | 4.7 fold | no binding
B5 | 98.9% | 1.89 nM | 4.1 fold | no binding
B6 | 107% | – | 4.1 fold | no binding
B7 | 116% | – | 1 fold | –
